Patent US20140044730A1 (Regeneron, published 2014)

Legend:
[1] = biological target: T1, human PCSK9 with a C-terminal myc-myc-hexahistidine tag (human, UniProt Q8NBP7 31-692, limits assumed); assay: SPR 25C, mAb captured;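 also: biacore CM4 surface bearing anti-human Fc antibody capturing the mAbs, PCSK9 binding and release rates fitted with a one-to-one model, KD and half-life derived from those rates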
T1 construct: also called hPCSK9-mmH; hPCSK9-mmh; not shown: C-terminal myc-myc-hexahistidine tag

[2] = biological target: T1, human PCSK9 with a C-terminal …; assay: SPR 25C pH 5.75, mAb captured;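 also: biacore surface with anti-human Fc antibody capturing the antibodies, PCSK9 as analyte, one-to-one kinetic fit, KD as kd over ka, half-life derived from kd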
[3] = biological target: T1, human PCSK9 with a C-terminal …; assay: blocking ELISA pH 7.2, 500 pM hPCSK9-mmH vs coated hLDLR EGFA-hFc, exp #1
Source text: The equilibrated sample solutions were then transferred to the LDLR EGFA-hFc coated plate prepared as described above.

[4] = biological target: human PCSK9 with a C-terminal myc-myc hexahistidine tag and a D374Y mutation (human, UniProt Q8NBP7 31-692, limits assumed); assay: cell-based or functional assay
[5] = biological target: recombinant cynomolgus monkey PCSK9 with a C-terminal myc-myc hexahistidine tag (cynomolgus monkey, UniProt A8T662 31-692 (Macaca nemestrina entry), limits assumed); assay: cell-based or functional assay
[6] = biological target: T1, human PCSK9 with a C-terminal …; assay: SPR 25C pH 7.2, mAb captured;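 also: biacore SPR, antibodies captured on anti-human Fc CM4 chip with PCSK9 flowed as analyte, rate constants from a one-to-one kinetic fit, KD and half-life derived from them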
[7] = biological target: T1, human PCSK9 with a C-terminal …; assay: SPR 25C, purified mAb captured
Procedure: (§1) A Biacore CM4 sensor chip was derivatized with a monoclonal mouse anti-human Fc antibody to capture human antibodies. The histidine substitution variant anti-PCSK9 antibodies were captured onto the anti-human Fc sensor surface from culture medium after transient expression in Chinese hamster ovary (CHO) cells. […] Kinetic association (kₐ) and dissociation (kd) rate constants were determined by processing and fitting the data to a 1:1 binding model using Scrubber 2.0 curve fitting software. Binding dissociation equilibrium constants (KD) and dissociative half-lives (t_{1/2}) were calculated from the kinetic rate constants as: KD (M)=kd/kₐ; and t_{1/2} (min)=(In2/(60*kd).
(§2) Also included in these experiments were several control/comparator antibodies. All measurements were taken at 25° C.

[8] = biological target: T1, human PCSK9 with a C-terminal …; assay: SPR 25C pH 7.4, purified mAb captured
Procedure: as §1
All measurements were taken at 25° C.

[9] = biological target: T1, human PCSK9 with a C-terminal …; assay: SPR 25C pH 6.0, purified mAb captured
Procedure: as §1, §2

Binder | KD ratio pH 5.75/pH 7.2 [1] | t½ ratio pH 5.75/pH 7.2 [1] | Kd [2] | t½ [2] | Kd [6] | t½ [6] | other results
VK-T102H (antibody, V domains shown, His variant of 300N) VH: EMQLVESGGGLVQPGGSLRLSCAASGFTFSSHWMKWVRQAPGKGLEWVANINQDGSEKYYVDSVKGRFTISRDNAKNSLFLQMNSLRAEDTAVYYCARDIVLMVYDMDYYYYGMDVWGQGTTVTVSS VL: not shown | 1.17 | 0.33 | 1.21 nM | 16 min | 1.03 nM | 49 min | –
VK-N33H (antibody, V domains shown, His variant of 300N) VH: EMQLVESGGGLVQPGGSLRLSCAASGFTFSSHWMKWVRQAPGKGLEWVANINQDGSEKYYVDSVKGRFTISRDNAKNSLFLQMNSLRAEDTAVYYCARDIVLMVYDMDYYYYGMDVWGQGTTVTVSS VL: not shown | 38.1 | 0.12 | 369 nM | 0.3 min | 9.69 nM | 2 min | –
VK-M94H (antibody, V domains shown, His variant of 300N) VH: EMQLVESGGGLVQPGGSLRLSCAASGFTFSSHWMKWVRQAPGKGLEWVANINQDGSEKYYVDSVKGRFTISRDNAKNSLFLQMNSLRAEDTAVYYCARDIVLMVYDMDYYYYGMDVWGQGTTVTVSS VL: not shown | 3.21 | 0.23 | 11.3 nM | 7 min | 3.53 nM | 29 min | –
VK-Q95H (antibody, V domains shown, His variant of 300N) VH: EMQLVESGGGLVQPGGSLRLSCAASGFTFSSHWMKWVRQAPGKGLEWVANINQDGSEKYYVDSVKGRFTISRDNAKNSLFLQMNSLRAEDTAVYYCARDIVLMVYDMDYYYYGMDVWGQGTTVTVSS VL: not shown | 1.48 | 0.23 | 1.97 nM | 6 min | 1.33 nM | 27 min | –
VK-L101H (antibody, V domains shown, His variant of 300N) VH: EMQLVESGGGLVQPGGSLRLSCAASGFTFSSHWMKWVRQAPGKGLEWVANINQDGSEKYYVDSVKGRFTISRDNAKNSLFLQMNSLRAEDTAVYYCARDIVLMVYDMDYYYYGMDVWGQGTTVTVSS VL: not shown | 1.84 | 0.25 | 3.3 nM | 8 min | 1.8 nM | 33 min | –
VK-P100H (antibody, V domains shown, His variant of 300N) VH: EMQLVESGGGLVQPGGSLRLSCAASGFTFSSHWMKWVRQAPGKGLEWVANINQDGSEKYYVDSVKGRFTISRDNAKNSLFLQMNSLRAEDTAVYYCARDIVLMVYDMDYYYYGMDVWGQGTTVTVSS VL: not shown | 1.44 | 0.1 | 12.8 nM | 0.4 min | 8.9 nM | 4 min | –
VK-S57H (antibody, V domains shown, His variant of 300N) VH: EMQLVESGGGLVQPGGSLRLSCAASGFTFSSHWMKWVRQAPGKGLEWVANINQDGSEKYYVDSVKGRFTISRDNAKNSLFLQMNSLRAEDTAVYYCARDIVLMVYDMDYYYYGMDVWGQGTTVTVSS VL: not shown | 1.84 | 0.26 | 1.74 nM | 12 min | 0.948 nM | 48 min | –
VK-Y37H (antibody, V domains shown, His variant of 300N) VH: EMQLVESGGGLVQPGGSLRLSCAASGFTFSSHWMKWVRQAPGKGLEWVANINQDGSEKYYVDSVKGRFTISRDNAKNSLFLQMNSLRAEDTAVYYCARDIVLMVYDMDYYYYGMDVWGQGTTVTVSS VL: not shown | 72.3 | 0.54 | 4420 nM | 0.2 min | 61.2 nM | 0 min | –
VK-Q27H (antibody, V domains shown, His variant of 300N) VH: EMQLVESGGGLVQPGGSLRLSCAASGFTFSSHWMKWVRQAPGKGLEWVANINQDGSEKYYVDSVKGRFTISRDNAKNSLFLQMNSLRAEDTAVYYCARDIVLMVYDMDYYYYGMDVWGQGTTVTVSS VL: not shown | 0.57 | 0.42 | 2.85 nM | 4 min | 5.01 nM | 9 min | –
VK-L97H (antibody, V domains shown, His variant of 300N) VH: EMQLVESGGGLVQPGGSLRLSCAASGFTFSSHWMKWVRQAPGKGLEWVANINQDGSEKYYVDSVKGRFTISRDNAKNSLFLQMNSLRAEDTAVYYCARDIVLMVYDMDYYYYGMDVWGQGTTVTVSS VL: not shown | 1.94 | 0.18 | 12.8 nM | 8 min | 6.61 nM | 45 min | –
316P(v2) (antibody, IgG4, V domains shown, also called 316(v2)) VH: EVQLVESGGGLVQPGGSLRLSCAASGFTFNNYAMNWVRQAPGKGLDWVSTISGSGGTTNYADSVKGRFIISRDSSKHTLYLQMNSLRAEDTAVYYCAKDSNWGNFDLWGRGTLVTVSS VL: not shown | – | – | – | – | – | – | KD ratio pH 6.0/pH 7.4 [7]: 0.41; ka ratio pH 6.0/pH 7.4 [7]: 1.25; kd ratio pH 6.0/pH 7.4 [7]: 0.51; t½ ratio pH 6.0/pH 7.4 [7]: 1.96; Kd [8]: 0.566 nM; koff [8]: 0.000292 s⁻¹; kon [8]: 517000 M⁻¹ s⁻¹; t½ [8]: 39.5 min; Kd [9]: 0.23 nM; koff [9]: 0.000149 s⁻¹; kon [9]: 649000 M⁻¹ s⁻¹; t½ [9]: 77.5 min

Now from value to binder, other results behind:

KD ratio pH 5.75/pH 7.2 [1] | t½ ratio pH 5.75/pH 7.2 [1] | Kd [2] | t½ [2] | Kd [6] | t½ [6] | Binder | other results
1.73 | 0.24 | 4.67 nM | 7 min | 2.69 nM | 28 min | VH-D108H (antibody, V domains shown, His variant of 300N) VH: EMQLVESGGGLVQPGGSLRLSCAASGFTFSSHWMKWVRQAPGKGLEWVANINQDGSEKYYVDSVKGRFTISRDNAKNSLFLQMNSLRAEDTAVYYCARDIVLMVYDMHYYYYGMDVWGQGTTVTVSS VL: not shown | IC50 [3]: 0.334 nM; IC50, LDL uptake in HepG2 cells, 2 nM hPCSK9-D374Y-mmH [4]: 2.6 nM; IC50, LDL uptake in HepG2 cells, 50 nM MfPCSK9-mmH [5]: 12.7 nM
1.61 | 0.24 | 1.54 nM | 10 min | 0.952 nM | 42 min | VK-N36H (antibody, V domains shown, His variant of 300N) VH: EMQLVESGGGLVQPGGSLRLSCAASGFTFSSHWMKWVRQAPGKGLEWVANINQDGSEKYYVDSVKGRFTISRDNAKNSLFLQMNSLRAEDTAVYYCARDIVLMVYDMDYYYYGMDVWGQGTTVTVSS VL: not shown | –
0.88 | 0.41 | 0.805 nM | 20 min | 0.914 nM | 49 min | VK-Q98H (antibody, V domains shown, His variant of 300N) VH: EMQLVESGGGLVQPGGSLRLSCAASGFTFSSHWMKWVRQAPGKGLEWVANINQDGSEKYYVDSVKGRFTISRDNAKNSLFLQMNSLRAEDTAVYYCARDIVLMVYDMDYYYYGMDVWGQGTTVTVSS VL: not shown | –
4.02 | 0.02 | 29.5 nM | 0.2 min | 7.34 nM | 13 min | VH-M107H (antibody, V domains shown, His variant of 300N) VH: EMQLVESGGGLVQPGGSLRLSCAASGFTFSSHWMKWVRQAPGKGLEWVANINQDGSEKYYVDSVKGRFTISRDNAKNSLFLQMNSLRAEDTAVYYCARDIVLMVYDHDYYYYGMDVWGQGTTVTVSS VL: not shown | IC50 [3]: 0.704 nM; IC50, LDL uptake in HepG2 cells, 2 nM hPCSK9-D374Y-mmH [4]: 4.6 nM; IC50, LDL uptake in HepG2 cells, 50 nM MfPCSK9-mmH [5]: 15.9 nM
1.25 | 0.1 | 12 nM | 0.4 min | 9.63 nM | 5 min | VK-T99H (antibody, V domains shown, His variant of 300N) VH: EMQLVESGGGLVQPGGSLRLSCAASGFTFSSHWMKWVRQAPGKGLEWVANINQDGSEKYYVDSVKGRFTISRDNAKNSLFLQMNSLRAEDTAVYYCARDIVLMVYDMDYYYYGMDVWGQGTTVTVSS VL: not shown | –
1.98 | 0.29 | 2.09 nM | 14 min | 1.06 nM | 48 min | VK-N35H (antibody, V domains shown, His variant of 300N) VH: EMQLVESGGGLVQPGGSLRLSCAASGFTFSSHWMKWVRQAPGKGLEWVANINQDGSEKYYVDSVKGRFTISRDNAKNSLFLQMNSLRAEDTAVYYCARDIVLMVYDMDYYYYGMDVWGQGTTVTVSS VL: not shown | –
1.43 | 0.14 | 10.5 nM | 3 min | 7.33 nM | 25 min | VH-V101H (antibody, V domains shown, His variant of 300N) VH: EMQLVESGGGLVQPGGSLRLSCAASGFTFSSHWMKWVRQAPGKGLEWVANINQDGSEKYYVDSVKGRFTISRDNAKNSLFLQMNSLRAEDTAVYYCARDIHLMVYDMDYYYYGMDVWGQGTTVTVSS VL: not shown | IC50 [3]: 0.857 nM; IC50, LDL uptake in HepG2 cells, 2 nM hPCSK9-D374Y-mmH [4]: 4.7 nM; IC50, LDL uptake in HepG2 cells, 50 nM MfPCSK9-mmH [5]: 17.2 nM
0.06 | 22.2 | 7.63 nM | 6 min | 138 nM | 0 min | VK-S28H (antibody, V domains shown, His variant of 300N) VH: EMQLVESGGGLVQPGGSLRLSCAASGFTFSSHWMKWVRQAPGKGLEWVANINQDGSEKYYVDSVKGRFTISRDNAKNSLFLQMNSLRAEDTAVYYCARDIVLMVYDMDYYYYGMDVWGQGTTVTVSS VL: not shown | –
